Experimental findings from US20200023071A1 (INNATE PHARMA, published 2020) are described below.

The chains are these.
T1: human MICA endogenously expressed on the surface of HCT116 colon carcinoma cells (human, UniProt Q29983 24-383)
T1 sequence (looked up): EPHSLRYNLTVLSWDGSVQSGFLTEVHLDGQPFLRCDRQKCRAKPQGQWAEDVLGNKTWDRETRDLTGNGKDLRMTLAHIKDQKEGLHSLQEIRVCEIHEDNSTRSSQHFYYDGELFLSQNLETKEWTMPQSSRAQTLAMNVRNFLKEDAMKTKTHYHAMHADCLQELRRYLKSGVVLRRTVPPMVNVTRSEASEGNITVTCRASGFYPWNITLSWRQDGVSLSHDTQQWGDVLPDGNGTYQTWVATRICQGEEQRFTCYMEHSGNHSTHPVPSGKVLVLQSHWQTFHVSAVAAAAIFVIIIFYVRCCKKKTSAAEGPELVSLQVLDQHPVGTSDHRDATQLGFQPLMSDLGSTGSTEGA

B1: chimeric antibody 9C10 (human IgG1 constant regions) conjugated to a PBD dimer, DAR about 2 (antibody, V domains shown)
VH: QVQLQQPGAELVRPGTSVNLSCKASGYSFTRYWMNWVKQRPGQGLEWIGMIHPSDSETRLNQKFKDKATLTVDKSSSTAYMQLSSPTSEDSAVYYCGYGNFFYVMDYWGQGTSVTVSS
VL: DILLTQSPAILSVSPGERVSFSCRASQSIGTSIHWYQQRTNGSPRLLIKFASESISGIPSRFSGSGSGTDFTLNINSVESEDIADYYCQQSNFWPFTFGSGTKLEVK
modifications: PBD dimer via NH2-PEG-N3 / DBCO-val-ala linker on Q295 (Kabat EU numbering) of each heavy chain constant region
B2: chimeric antibody 18E8 (human IgG1 constant regions) conjugated to a PBD dimer, DAR about 2 (antibody, V domains shown)
VH: DVQLQESGPDLVNPSQSLSLICTVTGYSITSDYSWHWIRQFPGNKLEWMGNIHYSGRINYNPSLRSRISITRDTSKNQFFLQLISVTTEDTATYYCATRRTFGNFEDYWGQGTTLTVSS
VL: QIVLSQSPATLSVSPGEKVTMTCRSSSSVNYMHWYQQKPGSSPKPWIYATSTLASGVPARFSGSGSGTSYSLTISRVEAEDAATYYCQQWSSNPLTFGAGTKLELK
modifications: PBD dimer via NH2-PEG-N3 / DBCO-val-ala linker on Q295 (Kabat EU numbering) of each heavy chain constant region
B3: chimeric antibody 6E4 (human IgG1 constant regions) conjugated to a PBD dimer, DAR about 2 (antibody, V domains shown)
VH: EVQLVESGGALVKPGGSLKLSCAASGFTFSYYAMSWVRQTPEKRLEWVATISRGGNYIYYTDSVKGRFTISRDNAKNTLYLQMTSLRSEDTAMFYCASISDYDGAWLAYWGQGTLVTV
VL: DVLMTQTPLSLPVSLGDQASISCRSSQSIIHTNGNTYLEWYLQKPGQSPKLLIYKISNRFSGVPDRFSGSGSGTDFTLKISRVEAEDLGVYYCFQGSHVPWTFGGGTKLEIK
modifications: PBD dimer via NH2-PEG-N3 / DBCO-val-ala linker on Q295 (Kabat EU numbering) of each heavy chain constant region
B4: chimeric antibody 19E9 (human IgG1 constant regions) conjugated to a PBD dimer, DAR about 2 (antibody, V domains shown)
VH: DVQLQESGPGLVKPSQSLSLTCTVTGYSITSDYAWNWIRQFPGNKLEWMGFVSYSGTTKYNPSLKSRISITRDTSENQFFLQLNSVTSEDTATYYCARGYGFDYWGQGTTLTVSS
VL: EIVLTQSPTTMAASPGEKITITCSATSSISSIYFHWYQQRPGFSPKLLIYRTSNLASGVPARFSGSGSGTSYSLTIGTMEAEDVATYYCQQGTTIPFTFGSGTKLEIK
modifications: PBD dimer via NH2-PEG-N3 / DBCO-val-ala linker on Q295 (Kabat EU numbering) of each heavy chain constant region

This experiment concerns the target T1, human MICA endogenously expressed on …. Put plainly: cell-based or functional assay.
As to B1, the “EC50 (also referred to as IC50) of cytotoxicity towards HCT116 cells, cell confluence over one week (IncuCyte)” value (“EC50 … over one week (IncuCyte)” for short) is 7.77 ng/mL.

For B2, the “EC50 … over one week (IncuCyte)” value is 3.77 ng/mL. As to B3, the “EC50 … over one week (IncuCyte)” value came to 2.25 ng/mL. In the case of B4 it was 0.475 ng/mL.
